From patent publication US20250092135A1 (NANJING LEADS BIOLABS, published 2025) come the findings set out here.

In assay [1] the target is T1, human MUC16 protein endogenously expressed on cells (human, UniProt Q8WXI7 1-14507).
T1 construct: whole, on cells; also called MUC16 on OVCAR3 cells; MUC16 in ovarian carcinoma tissue
Kind of assay: flow cytometry, OVCAR3 cells (endogenous human MUC16), PE anti-human IgG Fc secondary, MFI; EC50 table under the plot, unit from the axis Conc.(nM). The method, then:
(1) Whether the anti-CD3/anti-MUC16 bispecific antibodies in the present invention could bind to the MUC16 protein endogenously expressed on human ovarian carcinoma cells (OVCAR3) (Cell Bank of Type Culture Collection Committee of the Chinese Academy of Sciences, Cat #TCHu228) was determined by cell binding experiments.
The experiments were performed using flow cytometry. OVCAR3 cells were digested, centrifuged and collected. The cells were resuspended in a PBS solution, and seeded into a 96-well plate (Corning, Cat #3799) at 1×10⁵ cells/well. The 96-well plate was centrifuged and then the supernatant was discarded. 100 μL of the serially diluted test bispecific antibody (at a maximum concentration of 200 nM, 5-fold dilution from 100 nM, 9 concentration points in total) was added to the OVCAR3 cells. The plate was incubated at 4° C. for 30 min and centrifuged (1000 rpm, 5 min), and then the supernatant was discarded. 100 μL of PBS solution was added to each well, and the cells were washed twice. 100 μL of fluorescent secondary antibody R-PE-conjugated AffiniPure Goat Anti-Human IgG, Fcγ Fragment Specific (Jackson ImmunoResearch, Cat #109-116-098) diluted in a ratio of 1:200 was then added. The cells were incubated at 4° C. for 30 min. After the cells were washed twice with the PBS solution, 100 μL of PBS solution was added to each well to resuspend the cells, and finally, fluorescence signals were detected using a BD Accuri C5 (BD Bioscience) flow cytometer according to the manufacturer's instructions. REGN4018 was used as a positive control.
For orientation: In flow cytometry, cells or beads pass a laser one at a time.

Assay [2] has as its target T2, human CD3 protein endogenously expressed on Jurkat cells (human, UniProt P07766 23-207).
T2 construct: whole, on cells; The whole CD3 complex is on the cells; also called CD3 on Jurkat cells; CD3 on Jurkat/NFAT-luc cells
Kind of assay: flow cytometry, Jurkat cells (endogenous CD3), PE anti-human IgG Fc secondary, MFI; EC50 table under the plot, unit from the axis Conc.(nM). The protocol: (§1) (3) Whether the anti-CD3/anti-MUC16 bispecific antibodies in the present invention could bind to the CD3 protein endogenously expressed on Jurkat cells (Cell Bank of Type Culture Collection Committee of the Chinese Academy of Sciences, Cat #SCSP-513) was determined by cell binding experiments. Detection was performed using the flow cytometry described above, with the following differences: the dilution gradient for the test bispecific antibody was: a maximum concentration of 200 nM, starting from a second concentration of 100 nM, 5-fold dilution, 10 points; the bispecific antibodies were added to Jurkat cells, and the cells were incubated at 4° C. for 30 min. The cells were washed twice with PBS, and then fluorescent secondary antibody R-PE-conjugated AffiniPure Goat Anti-Human IgG, Fcγ Fragment Specific was added. The cells were incubated at 4° C. for 30 min. The cells were washed twice with PBS and then resuspended, and finally, fluorescence signals were detected using a BD Accuri C5 (BD Bioscience) flow cytometer.

Assay [3] has as its target T3, rhesus monkey MUC16 protein (ECT_TM RhMuc16) on 293T cells (rhesus monkey).
T3 chain: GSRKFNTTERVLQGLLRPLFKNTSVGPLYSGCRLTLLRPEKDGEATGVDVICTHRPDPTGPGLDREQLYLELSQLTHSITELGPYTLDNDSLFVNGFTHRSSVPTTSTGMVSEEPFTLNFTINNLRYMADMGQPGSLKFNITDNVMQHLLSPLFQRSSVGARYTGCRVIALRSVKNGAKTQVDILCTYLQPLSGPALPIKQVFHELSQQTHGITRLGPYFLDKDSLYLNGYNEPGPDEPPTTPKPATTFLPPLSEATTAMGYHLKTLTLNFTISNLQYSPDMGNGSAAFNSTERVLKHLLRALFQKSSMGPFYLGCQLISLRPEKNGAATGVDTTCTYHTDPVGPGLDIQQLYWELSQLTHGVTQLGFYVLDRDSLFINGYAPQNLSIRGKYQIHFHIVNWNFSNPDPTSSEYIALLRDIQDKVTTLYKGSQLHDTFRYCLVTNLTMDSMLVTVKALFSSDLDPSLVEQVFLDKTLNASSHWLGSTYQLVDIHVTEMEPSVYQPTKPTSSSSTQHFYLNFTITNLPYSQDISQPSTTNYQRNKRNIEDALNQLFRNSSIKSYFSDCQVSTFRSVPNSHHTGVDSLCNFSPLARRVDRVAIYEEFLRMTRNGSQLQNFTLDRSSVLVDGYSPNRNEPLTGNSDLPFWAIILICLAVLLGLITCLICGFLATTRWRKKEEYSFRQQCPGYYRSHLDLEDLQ
Kind of assay: flow cytometry, 293T/rhesus MUC16 cells as printed on the sheet and in the legend (the example, paragraph 611, speaks of cynomolgus MUC16), PE anti-human IgG Fc secondary, MFI; EC50 table under the plot, unit from the axis Conc.(nM); curve still rising at the top concentration of 100 nM. The protocol: (§2) Referring to the flow cytometry described above, the serially diluted test bispecific antibody (at an initial concentration of 100 nM, 5-fold dilution, 9 points) was added to the cells, and the plate was incubated at 4° C. for 30 min. The cells were washed twice with PBS, and then fluorescent secondary antibody R-PE-conjugated AffiniPure Goat Anti-Human IgG, Fcγ Fragment Specific was added. The cells were incubated at 4° C. for 30 min. The cells were washed twice with PBS and then resuspended, and finally, fluorescence signals were detected using a BD Accuri C5 (BD Bioscience) flow cytometer.

Assay [4] deals with T2, human CD3 protein endogenously …. Kind of assay: flow cytometry, Jurkat cells (endogenous CD3), PE anti-human IgG Fc secondary, MFI; EC50 table under the plot, unit from the axis Conc.(nM); curve still rising at the top concentration. The protocol:
as §1

Assay [5] addresses T3, rhesus monkey MUC16 protein (ECT_TM …). Kind of assay: flow cytometry, 293T/rhesus MUC16 cells as printed on the sheet and in the legend (the example, paragraph 611, speaks of cynomolgus MUC16), PE anti-human IgG Fc secondary, MFI; EC50 table under the plot, unit from the axis Conc.(nM); curve still rising at the top concentration of 100 nM, the value lies beyond the range shown. The method, then:
as §2

T2 sequence (P07766 23-207): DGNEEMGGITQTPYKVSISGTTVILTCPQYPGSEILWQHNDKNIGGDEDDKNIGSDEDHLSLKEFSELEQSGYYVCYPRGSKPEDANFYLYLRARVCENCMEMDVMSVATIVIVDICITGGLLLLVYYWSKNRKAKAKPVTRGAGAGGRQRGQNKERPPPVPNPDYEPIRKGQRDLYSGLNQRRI

B1: anti-CD3/MUC16 bispecific antibody 2MCH7-23L2 (bispecific antibody, human IgG1, kappa, L234A L235A)
heavy 1: not shown
heavy 2: EVQLVESGGGLVQPGGSLKLSCAASGFTFSTYAMNWVRQAPGKGLEWVGRIRSKYNNYATYYADSVKDRFTISRDDSKNTLYLQMNSLKTEDTAVYYCTRHGNFGNSYVSWFAYWGQGTTVTVSSGGGGSGGGGSGGGGSQAVVTQEPSLTVSPGGTVTLTCRSSTGAVTTSNYANWVQQKPGQAPRGLIGGTNKRAPGVPARFSGSLLGGKAALTLSGAQPEDEAEYFCALWYSNLWVFGGGTKLTVLGEPKSSDKTHTCPPCPAPEAAGGPSVFLFPPKPKDTLMISRTPEVTCVVVAVSHEDPEVKFNWYVDGVEVHNAKTKPREEQYNSTYRVVSVLTVLHQDWLNGKEYKCKVSNKALAAPIEKTISKAKGQPREPQVCTLPPSRDELTKNQVSLSCAVKGFYPSDIAVEWESNGQPENNYKTTPPVLDSDGSFFLVSKLTVDKSRWQQGNVFSCSVMHEALHNHYTQKSLSLSPGK
light: EIVLTQSPATLSLSPGERATLSCRASSSVIYMSWYQQKPGQAPRLLIYGTSTLASGIPARFSGSGSGTDFTLTISSLEPEDFAVYYCQQWSSNPFTFGQGTKLEIKRTVAAPSVFIFPPSDEQLKSGTASVVCLLNNFYPREAKVQWKVDNALQSGNSQESVTEQDSKDSTYSLSSTLTLSKADYEKHKVYACEVTHQGLSSPVTKSFNRGEC
notes: 2MCH7-KIH-Knob (VH-CH1-VH-CH1-Fc) + 23L2ScFv-Hole + two light chains MCL4 LC
B1: the EC50 (in general, the midpoint of the concentration-response curve) came to 2.78 nM in assay [1], 14 nM in assay [2] and 48.4 nM in assay [3].

B2: anti-CD3/MUC16 bispecific antibody MCH7-23L2 (bispecific antibody, human IgG1, kappa, L234A L235A)
heavy 1: EVQLVESGGGLVQPGGSLKLSCAASGFTFSTYAMNWVRQAPGKGLEWVGRIRSKYNNYATYYADSVKDRFTISRDDSKNTLYLQMNSLKTEDTAVYYCTRHGNFGNSYVSWFAYWGQGTTVTVSSGGGGSGGGGSGGGGSQAVVTQEPSLTVSPGGTVTLTCRSSTGAVTTSNYANWVQQKPGQAPRGLIGGTNKRAPGVPARFSGSLLGGKAALTLSGAQPEDEAEYFCALWYSNLWVFGGGTKLTVLGEPKSSDKTHTCPPCPAPEAAGGPSVFLFPPKPKDTLMISRTPEVTCVVVAVSHEDPEVKFNWYVDGVEVHNAKTKPREEQYNSTYRVVSVLTVLHQDWLNGKEYKCKVSNKALAAPIEKTISKAKGQPREPQVCTLPPSRDELTKNQVSLSCAVKGFYPSDIAVEWESNGQPENNYKTTPPVLDSDGSFFLVSKLTVDKSRWQQGNVFSCSVMHEALHNHYTQKSLSLSPGK
heavy 2: not shown
light: EIVLTQSPATLSLSPGERATLSCRASSSVIYMSWYQQKPGQAPRLLIYGTSTLASGIPARFSGSGSGTDFTLTISSLEPEDFAVYYCQQWSSNPFTFGQGTKLEIKRTVAAPSVFIFPPSDEQLKSGTASVVCLLNNFYPREAKVQWKVDNALQSGNSQESVTEQDSKDSTYSLSSTLTLSKADYEKHKVYACEVTHQGLSSPVTKSFNRGEC
notes: 23L2ScFv-Hole + MCH7-KIH-Knob + one light chain MCL4 LC
On to B2, for which the EC50 was determined as 17.2 nM in assay [1], 70.7 nM in assay [4] and 182 nM in assay [5].
